Columns and labels:
[1] = Collagen permeation through microneedle pretreated rat skin (confocal fluorescence); format: in vitro ADME
Method: Microneedles of the longest range of length were inserted into excised rat abdominal skin. Hair and fat were removed as mentioned previously. The skin was fully stretched on a thin layer of PDMS to mimic tissue-like mechanical support. A force of 10 N was applied using the digital force gauge (Dillon GL, USA) for 2 minutes. Bovine skin collagen type 1, FITC conjugate (MW=300 kDa) of concentrations 0.025, 0.050 and 0.075% w/v was obtained by diluting the stock collagen solution (0.1% w/v) withappropriate amount of 0.1 M Tris-HCl buffer (pH 7.8) containing 0.4 M NaCl, 10 mM CaCl2 and 0.25 M glucose. NaCl and CaCl2 aid in stabilizing the collagen molecules and glucose is added to prevent gelation of the collagen fibers. Each collagen concentration was applied to separate skin samples at the area of insertion. The time of contact between the collagen solution and the skin was kept constant at 4 hours at room temperature, after which excess collagen on the skin surface was removed using Kimwipe (Kimberly-Clark, Roswell, Ga.). The degree of permeation of collagen through the skin was quantified by using the A-1R confocal microscope (Nikon, Japan) to observe the fluorescence intensity of collagen type 1, FITC conjugate at excitation and emission wavelengths of 490 nm and 520 nm respectively. […]

[2] = Fluorescence spectroscopy, tertiary structure stability of BSA in microneedles; format: physicochemical; settings: excitation 280 nm
Method: In order to evaluate the tertiary structural changes in the protein conformation, fluorescence spectra was analyzed for protein samples. […] The emission spectra were studied in the range of 300-400 nm at a fixed excitation wavelength of 280 nm using a Hitachi F-7000 fluorescence spectrophotometer. The fluorescence intensities were plotted against wavelength as an average of triplicate measurements.

[3] = cited from earlier work
[4] = Circular dichroism, secondary structure stability of BSA in microneedles; format: physicochemical; settings: far UV CD 260-200 nm; microneedle release samples stored 3 days at 37° C.; degraded control: 75° C. or pH 2
Method: Circular dichroism (CD) spectroscopy was performed on the samples to evaluate the secondary structural characteristics of bovine serum albumin in the fabricated microneedles. The analysis was performed in a Jasco J-810 spectropolarimeter (Jasco, Tokyo, Japan) with a 1 mm light path quartz cell (Helima, Müllheim, Germany). Data was acquired at a bandwidth of 0.1 nm with a scan speed of 50 nm/min and a response time of 8 seconds. […] The microneedle release samples were first filtered using micro-centrifugal concentrators, (30 kDa cut-off) (Vivaspin 20, GE, UK) to separate the protein from polymer. Average value from triplicate measurements was used to plot the curve of molar ellipticity to wavelength. Molar ellipticity was calculated using the following equation: […]
The percentage of α-helix was calculated from the following equation
[formula] Tertiary Structure Stability

[5] = In vitro release of rhodamine B from microneedle arrays in 1×PBS at 37° C.; format: physicochemical; settings: within the first hour, rhodamine B encapsulated in PEGDA microneedles and backing layer
Method: Encapsulation of a Model Drug: Imaging and In Vitro Release Rhodamine B was dissolved in the prepolymer solution at a concentration of 0.09, 0.17 and 0.44 weight %, respectively. The drug-laden microneedle samples were imaged using a fluorescence stereomicroscope (Nikon, Japan). The amount of drug encapsulated in the microneedles was calculated from the percent weight of the drugs in the prepolymer solution and the weight of fabricated microneedles. Selective incorporation of rhodamine B in the backing layer or microneedle shafts was made possible by using the prepolymer solutions containing the model drug to fabricate the backing layer or microneedles respectively. In vitro release of rhodamine B was tested by suspending fabricated microneedle arrays in 15 ml of 1×PBS, at 37° C. and sampled at regular intervals. At each sampling point, the whole 15 ml of release medium was withdrawn and replaced with 15 ml of fresh 1×PBS. The samples were stored at 4° C. before analysis. The amount released was quantified by measuring rhodamine B fluorescence at excitation and emission wavelengths of 554 nm and 586 nm, respectively, with a Tecan 2000 microplate reader (Tecan, Austria). In Vitro Permeation Through Rat Skin

bovine collagen type 1, FITC conjugate: model macromolecule, MW=300 kDa, applied to microneedle pretreated skin
diffusion of collagen molecules after treatment of skin with microneedles [1]: greatly enhanced

standard solution of BSA: standard BSA solution 0.026 mg/ml in purified water
emission maximum ([2]; standard BSA solution, scanned 300-400 nm): 338 nm

O=C(O)CN(CC(=O)O)Cc1cc2c(cc1O)Oc1cc(O)c(CN(CC(=O)O)CC(=O)O)cc1C21OC(=O)c2ccccc21 [calcein]
log P [3]: −5.02

degraded BSA: BSA degraded by heating at 75° C. and under acidic conditions of pH 2
fluorescence ([2]; BSA denatured using heat or acid, emission 300-400 nm): did not show any fluorescence | secondary structure / ellipticity by circular dichroism [4]: significantly lower ellipticity values

CCN(CC)c1ccc2c(-c3ccccc3C(=O)O)c3ccc(=[N+](CC)CC)cc-3oc2c1.[Cl-] [rhodamine B, Rhodamine B]
encapsulated drug released [5]: ~30% | log P [3]: 2.43

Reference: patent US10272233B2, “Method to fabricate polymeric microneedles” (National University of Singapore, priority 2012, dated 2019)
